From the supplement of paper PMC9170038 come the findings set out here.

In the data set the test system is MS2 coat protein. Kind of data set: apparent KD of MS2 coat protein; designed switch direction (-1 OFF switch, 1 ON switch): -1; higher = weaker reporter binding. In a few lines:
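Normalised cluster fluorescence was curve-fitted, and each design's median over clusters is its apparent KD. Before this, SNAP-549-labelled MS2 coat protein was titrated from 0.7 or 1.5 nM, doubling to 3 µM, over RNA switches transcribed on Illumina chips by stalled E. coli RNA polymerase. Titrations had no input, 200 uM small-molecule ligand, or an oligonucleotide input, and steps lasted 0.8–1.5 h (lowest) to 10–20 min (highest).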

Where [1] appears, read: input ligand: microRNA oligo, concentration not stated.
The mark [2] stands for this setting: Eterna round: R95, input ligand: FMN 200 uM.
Where [3] appears, read: Eterna round: R95, input ligand: microRNA oligo, concentration not stated.
[4] abbreviates: Eterna round: R95, input ligand: none.

For “CCUGCGGACAAAGGAUAUUGCGGUGGCCGGCUCAGUAAAUCUAGCCAACAUGAGGAUCACCCAUGUAAGAAGGUUGCCGUUGGU [Qudice] (Eterna round: R96, puzzle: Exclusion NG 2)”, the “apparent KD of MS2 coat protein” value under setting [1] was 0.017 µM.

In the case of “CCUGGGUCAUCUCCCAGGAACAACAUGAGGAUCACCCAUGUCUAGGAUAUCCACCAGUCAAUAAAGGAGAAGGAGACGGUGGUU [Onlaxe] (Eterna round: R96, puzzle: Exclusion NG 3)”, the “apparent KD of MS2 coat protein” value turned out to be 0.0222 µM (input ligand: FMN 200 uM), 0.0146 µM under setting [1] and 0.0197 µM (input ligand: none).

In the case of “CCUGUGACGCAGGAUAUCGAGCACAAUGCAUGUUGAGAAGGGCGUACAUGAGGAUCACCCAUGUCUCACGUAGG [Eternabot (L1) Solution 53] (Eterna round: R97, puzzle: Exclusion 6)”, the “apparent KD of MS2 coat protein” value (input ligand: FMN 200 uM) was determined as 0.175 µM and the “apparent KD of MS2 coat protein” value (input ligand: none) was found to be 0.316 µM.

For the sequence “CCUUAUUAUCGAGGAUAUCCUAUUGAAAUUCUGGGAGAAGGCGGACUCAACAUGAGGAUCACCCAUGUGGGACGGAUGCUAGGA [salish99_exng1_r04_603] (Eterna round: R96, puzzle: Exclusion NG 1)”, the “apparent KD of MS2 coat protein” value stood at 0.021 µM (input ligand: FMN 200 uM), 0.0135 µM under setting [1] and 0.0202 µM (input ligand: none).

In the case of “CCUUUGUCAGGAUAUCAGAAAACGCCCGUAGGGAGCGCAAAUGAGAAGGGACAUGAGGAUCACCCAUGUAAAGA [Edvereri] (puzzle: Exclusion 4)”, the “apparent KD of MS2 coat protein” value runs as follows: under setting [2], 0.204 µM; under setting [3], 0.0501 µM; under setting [4], 0.053 µM.

Turning to “CGACCACAUGAGGAUCACCCAUGUCAGGAUAUGAGAGCCUUACGAAAGAGACGGCAGCUUAGAAGGGAUGCGGC [Eternabot (L1) Solution 74] (Eterna round: R97, puzzle: Exclusion 1)”, the “apparent KD of MS2 coat protein” value is, setting by setting: (input ligand: FMN 200 uM) 0.0233 µM; (input ligand: none) 0.0269 µM.

For “CGACUAAACGUGAGGAUAUGCGGUGCCAGAACAUUGCAGAAGGCACAUGAGGAUCACCCAUGUGUGGGAGAAGA [Eternabot (L1) Solution 43] (Eterna round: R97, puzzle: Brourd's mod of Exclusion 4)”, the “apparent KD of MS2 coat protein” value is 0.241 µM (input ligand: FMN 200 uM) and 0.103 µM (input ligand: none).

Turning to “CGAGACGGAGGAUAUACAUGAGGAUCACCCAUGUUAAACCACGGGUAGCCUUCGGUCGGUAGAAGGCCGCAUCG [Eternabot (Original) Solution 47] (Eterna round: R97, puzzle: Exclusion 3)”, the “apparent KD of MS2 coat protein” value by setting is: (input ligand: FMN 200 uM) 0.0867 µM; (input ligand: none) 0.0212 µM.

Consider “CGAGAGCGAGGAUAUACACAACACCUCACUGUCAAGAAAGGACAUGAGGAUCACCCAUGUAGAAGGUGCAAAGC [Xecerevear] (puzzle: Exclusion 2)”, for which the “apparent KD of MS2 coat protein” value under setting [2] turned out to be 0.303 µM, the “apparent KD of MS2 coat protein” value under setting [3] amounted to 0.412 µM and the “apparent KD of MS2 coat protein” value under setting [4] was 0.326 µM.

Regarding “CGAUAAAGGUGAGGAUAUGAGAAUAGAAAGAAAUCAGAAGGCACACAUGAGGAUCACCCAUGUGAGUUCUCGAGAUUACAUGGU [Prohibition 45 - Jieux - Exclusion NG 1] (Eterna round: R96, puzzle: Exclusion NG 1)”, the “apparent KD of MS2 coat protein” value under setting [1] was 0.0108 µM.

Regarding “CGAUCACAUGAGGAUCACCCAUGUGAGGAUAUAAUAACGCGGCGUGAGCACGGGAAUUUUAGAAGGCACACGGU [Eternabot (Original) Solution 42] (Eterna round: R97, puzzle: Exclusion 1)”, the “apparent KD of MS2 coat protein” value runs as follows: (input ligand: FMN 200 uM) 0.0142 µM; (input ligand: none) 0.013 µM.

For “CGAUCGGUAGGAUAUACAUGAACCUUGGUUGUGAGGCCUAAACAUGAGGAUCACCCAUGUAGAAGGACCUCGUA [EX2 C.10] (Eterna round: R97, puzzle: Exclusion 2)”, the “apparent KD of MS2 coat protein” value (input ligand: FMN 200 uM) worked out at 0.0139 µM and the “apparent KD of MS2 coat protein” value (input ligand: none) is 0.0138 µM.

“CGAUGUCUUCGGACAUCGAACAUGAGGAUCACCCAUGUAAUGAGCAGAUCCUCAUGCAAGCUUUUUGCUCGUCUUAU [Sensor v3 - turn-off variant 1 - 45] (puzzle: Sensor v3, turn-off variant 1)”: the “apparent KD of MS2 coat protein” value was 0.014 µM under setting [2], 0.00969 µM under setting [3] and 0.0166 µM under setting [4].

Consider “CGAUGUGGAGUGAGGAUAUCGUGUUCGAAAGAACGUGAGAAGGCACAUGAGGAUCACCCAUGUGAUCCAUGUCG [Omei Ex4B A8] (Eterna round: R97, puzzle: Brourd's mod of Exclusion 4)”, for which the “apparent KD of MS2 coat protein” value reads like this: (input ligand: FMN 200 uM) 0.0317 µM; (input ligand: none) 0.0264 µM.

Consider “CGCAAAAGGAAGGAUAUGCUAGACGAAAGUCUAGCAGAAGGUCCUACAUGAGGAUCACCCAUGUGUCCUAUGCG [Mat - Exclusion 6 - Eli Mod - D11] (Eterna round: R97, puzzle: Exclusion 6)”, for which the “apparent KD of MS2 coat protein” value (input ligand: FMN 200 uM) came out at 0.0631 µM and the “apparent KD of MS2 coat protein” value (input ligand: none) turned out to be 0.0466 µM.

Consider “CGCAACACAUGAGGAUCAAACAUGAGGAUCACCCAUGUAAAACAAGCUUUUUGCUCGUCUUAUAAAUAUGUGUUGCG [Electric Eye 1 - Jieux - Sensor, turn-off variant 1] (Eterna round: R97, puzzle: Sensor, turn-off variant 1)”, for which the “apparent KD of MS2 coat protein” value by setting is: (input ligand: FMN 200 uM) 0.0184 µM; (input ligand: none) 0.021 µM.

With “CGCACACAUGAGGAUCACCCAUGUGAGGAUAUCAUGCUUCGUAGUAAACUACGAAGUGUGAGAAGGCACAUGCC [Omei Ex1 D7] (Eterna round: R97, puzzle: Exclusion 1)”, the “apparent KD of MS2 coat protein” value reads like this: (input ligand: FMN 200 uM) 0.0242 µM; (input ligand: none) 0.0184 µM.

For “CGCAUGUCAGGAUAUCGUGCAUACAACGAAAGUUCUAUGUGCGAGAAGGGACAUGAGGAUCACCCAUGUUAGCG [Omei Ex4 A9] (Eterna round: R97, puzzle: Exclusion 4)”, the “apparent KD of MS2 coat protein” value is, setting by setting: (input ligand: FMN 200 uM) 0.741 µM; (input ligand: none) 0.604 µM.

“CGGAUGUAAGGAUAUCGUGCAAGUUUCAAAAGAGGCUUGUGCGAGAAGGUACAUGAGGAUCACCCAUGUAGGUU [Omei Ex4 B6] (Eterna round: R97, puzzle: Exclusion 4)”: the “apparent KD of MS2 coat protein” value came to 0.157 µM (input ligand: FMN 200 uM) and 0.0758 µM (input ligand: none).

Turning to “CGGAUGUGAGGAUAUACAUGAGGAUCACCCAUGUGUGCCAGCUAGAUGACUGGCACUUGUAGAAGGCACGUCUG [Mat - Exclusion 3 - Mod of JL D91] (Eterna round: R96, puzzle: Exclusion 3)”, the “apparent KD of MS2 coat protein” value (input ligand: FMN 200 uM) was 0.0255 µM, the “apparent KD of MS2 coat protein” value under setting [1] turned out to be 0.0113 µM and the “apparent KD of MS2 coat protein” value (input ligand: none) stood at 0.0161 µM.

In the case of “CGGAUGUGAGGAUAUACAUGAGGAUCACCCAUGUGUGCCAGCUAGAUGACUGGCACUUGUAGAAGGCACGUCUG [Mat - Exclusion 3 - Mod of JL D91] (puzzle: Exclusion 3)”, the “apparent KD of MS2 coat protein” value under setting [3] was 0.0113 µM.

In the case of “CGGAUGUUAGGAUAUUAGUAGUAGUCAGAAUAGACUAUUACUGAGAAGGAACAUGAGGAUCACCCAUGUAUCCG [Eli x4 4.20] (Eterna round: R97, puzzle: Exclusion 4)”, the “apparent KD of MS2 coat protein” value was 0.0474 µM (input ligand: FMN 200 uM) and 0.0177 µM (input ligand: none).

As to “CGGCAACAUGAGGAUCACCCAUGUUAGGAUAUCGGUGGCUGACACGAAACAGGACCGGUGAGAAGGAGUAUGGU [Eternabot (L1) Solution 2] (Eterna round: R97, puzzle: Exclusion 1)”, the “apparent KD of MS2 coat protein” value was 0.039 µM (input ligand: FMN 200 uM) and 0.0392 µM (input ligand: none).

In the case of “CGGCGACAUGAGGAUCACCCAUGUGAGGAUAUGACGGGAAAAGCGUGAGCAGUUUGUGUCAGAAGGCGCGUAGG [salish99_ex1_r4_081] (Eterna round: R97, puzzle: Exclusion 1)”, the “apparent KD of MS2 coat protein” value by setting is: (input ligand: FMN 200 uM) 0.0202 µM; (input ligand: none) 0.0287 µM.

As for “CGGGCGUGAGGAUAUCCAUCUGGAUCAGACUAGAUCCUGAUGGAGAAGGCACAUGAGGAUCACCCAUGUACCCG [Eli 4x 4.50] (Eterna round: R97, puzzle: Exclusion 4)”, the “apparent KD of MS2 coat protein” value by setting is: (input ligand: FMN 200 uM) 0.0222 µM; (input ligand: none) 0.0186 µM.

Regarding “CGGGUGAUAGGAUAUGACCAAGGUGACAUGAGGAUCACCCAUGUGAUCGUCGUAGACCUGUCAGAAGGGUUCCCGA [Bivevebe] (Eterna round: R97, puzzle: Exclusion 5)”, the “apparent KD of MS2 coat protein” value came to 0.0787 µM (input ligand: FMN 200 uM) and 0.0349 µM (input ligand: none).

On to “CGGUACUGAGGAUAUACAUGAGGAUCACCCAUGUGUUCUAGCUAGCGUACUGGCAUUUGUAGAAGGCGGUGCUG [JL-ex3-3.23 Brourd mod] (puzzle: Exclusion 3)”, for which, under setting [3], the “apparent KD of MS2 coat protein” value was found to be 0.0164 µM.

Regarding “CGGUGCUGAGGAUAUACAUGAGGAUCACCCAUGUGUGCCAGCUAGCUGACUGGCACUUGUAGAAGGCAGUACUG [JL-ex3-2.13 Brourd mod] (puzzle: Exclusion 3)”, the “apparent KD of MS2 coat protein” value under setting [3] amounted to 0.0124 µM.

“CGGUGCUGAGGAUAUACAUGAGGAUCACCCAUGUGUUCUAGCUAGCGUACUGGCAGAUGUAGAAGGCGGUACUG [JL-ex3-3.43 Brourd mod] (puzzle: Exclusion 3)”: under setting [3], the “apparent KD of MS2 coat protein” value stood at 0.0171 µM.

For the sequence “CGUAGCAAUGUGAGGAUAUCUAGAGCUUCGGCUCUAGAGAAGGCACAUGAGGAUCACCCAUGUGAUUAGCUACG [BmEx4/9-B1] (Eterna round: R97, puzzle: Brourd's mod of Exclusion 4)”, the “apparent KD of MS2 coat protein” value is, setting by setting: (input ligand: FMN 200 uM) 0.989 µM; (input ligand: none) 0.347 µM.

On to “CGUAGCAUUGUGAGGAUAUCUAGAGCUUCGGCUCUAGAGAAGGCACAUGAGGAUCACCCAUGUGAUUAGCUACG [BmEx4/9-C1] (Eterna round: R97, puzzle: Brourd's mod of Exclusion 4)”, for which the “apparent KD of MS2 coat protein” value (input ligand: FMN 200 uM) came to 1.76 µM and the “apparent KD of MS2 coat protein” value (input ligand: none) was found to be 0.111 µM.
